Experimental data from article PMC5314774 (Nucleic Acids Research, 2016).

Assays:
[1] = molecular target: T1, LAGE3 (bacterial, 6xHIS-GST removed) (human, UniProt Q14657 1-143); assay: SEC
T1 sequence: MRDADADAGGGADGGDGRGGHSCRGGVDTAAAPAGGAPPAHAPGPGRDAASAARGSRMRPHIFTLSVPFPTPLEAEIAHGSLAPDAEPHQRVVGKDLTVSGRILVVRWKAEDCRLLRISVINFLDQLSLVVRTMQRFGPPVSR

[2] = molecular target: 4-subunit KEOPS complex (OSGEP, PRPK, TPRKB and LAGE3) (human, UniProt Q9NPF4;Q96S44;Q9Y3C4;Q14657); assay: SEC-MALS

B1: C14ORF142 (bacterial, GST removed) (natural protein)
chain: MELLGEYVGQEGKPQKLRVSCEAPGDGDPFQGLLSGVAQMKDMVTELFDPLVQGEVQHRVAAAPDEDLDGDDEDDAEDENNIDNRTNFDGPSAKRPKTPS
stoichiometry N [1]: 1

B2: C14ORF142 (insect cells, polycistronic KEOPS vector) (natural protein)
chain: MELLGEYVGQEGKPQKLRVSCEAPGDGDPFQGLLSGVAQMKDMVTELFDPLVQGEVQHRVAAAPDEDLDGDDEDDAEDENNIDNRTNFDGPSAKRPKTPS
stoichiometry N [2]: 1
